This note sets out measurements from a protein production outcome set (Wang et al. 2014).
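Note: failed if final PepcDB status was selected cloned or expressed and not failed if soluble or beyond.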

The data set is described as follows: label from the status in PepcDB records.
“MVAACKTMLTQIYEVATPAEAEAISVIGVDHVGVLVGDGAFPRELPVQKALAVMKMVRAPSVVSALFLSADVALIERMARELDPPIVHLGASSELLTPDLVVALRKSLPKTKFMRSVPVTGPEAVGVAQAYDGVVDWILLDSHRTGDVQIGAQGVTHDWSISRTIVESVRTPVILAGGLGPDNVKEAIRSVRPAGVDSKTRTDREGTHSKDLRKVEAFYRAATSG”: the protein production result is recorded as “failed”.

As to “MDFSSNVAAQLNAGTILPEGIVIVTLLLVLIVDLIGGRKVALALPYLAIAGLLVSVGLLVTSWSMADPIGFIGAFNGDNLSIIFRAIIALSTVVTILMSVRYVQQTGTSLAEFIAILLTATLGGMFLSAANELVMVFISLEMLSISSYLMTGYMKRDPRSNEAALKYLLIGASSSAIFLYGLSLLYGLSGGETQLVLIAEKLVNADTVGQSLGLAIALVFVIAGIAFKISAVPFHQWTPDVYEGSPTPVVAFLSVGSKAAGFAVAIRLLVTAFGGITDEWHVIFTALAVLSMVLGNVVALAQTSMKRMLAYSSIGQAGFVMIGLVAGSEDGYASMVFYMLIYLFMNLGAFSCIILFTLRTGSDQISDYAGLYHKDPLLTLGLSICLLSLGGIPPLAGFFGKIYIFWAGWQSGLYGLVLLGLVTSVVSIYYYIRVVKMMVVKEPQEMSEVIKNYPAIKWNLPGMRPLQVGIVATLVATSLAGILANPLFNLATDSVVSTKMLQTALQQTGETPAIAISHDLP”, the protein production entry is reported as “failed”.

Take “MNFIRIVKFDFKNIIRNPMLLFFNTIFPLILIGSIGFVMKNGYGSFNVTSYDYYGVTMMIFTAFIICITASNTFMEKSVKKGNTRIVYAPVSKAEIYLSKIISTYILGSIFYSIIIVLGKYVLNINYGTRSTIYIIILINMLTLFGCCLGVLFCCIFKSEEGANSVLQIVIMLFIFFGGVFFPVYSLGKIVESISNLSPLKWITECIFRIIYDNDFSIYLPTIGVMLVSSIICIVICQIIFKPEEYV”: the protein production entry is given as “failed”.

Consider “MNVSTAELLSWVVKSSYLVAATLFLLGLQRMASPLSARSGIRWAGLGMLIATVATFFLPELHNVPLILAALAIGTGVAWWSAKKVAITDMPQMVALYNGMGGGSAAAIGAVELLRFSFFANRDTAHWSAQAVAELAARQPDTAMVVLAVIGSAIGAVSLSGSIIAWAKLDGRLDRRMTFPGQQAFNLAVAVAVLALAIWAAGSLQPLAIIAFFVVALALGVLMTLPIGGADMPVVISLYNAFTGLAVAFEGYVLGNEALIIAGMMVGAAGILLTRLMAKAMNRPISGVLFSNFGGGGQAQEISGVQKPIEAGDVAAMMAFAERVVIVPGYGMAVAQAQHKIWELAQRLMARGVKVKFAIHPVAGRMPGHMNVLLAEAGVPYDLIADMDDINPEFASTDVSLVIGANDVVNPVAKTDSASPIYGMPILDVVNSRNTVVIKRGKGTGFAGIENALFYADNTRMLYGDGAEAAGALVSELKALDGSGH”, for which the protein production result is recorded as “failed”.

As for “PPKIRVVVRKRPISKKERERGDDDVVDVLAKNNTVVVNEEKVKVDLTKYLEKHAFKFDESLDENVSNEAVYQLTVGPLVRTLFRNGRASCFAYGQTGSGKTYTMSPLPIRASADIFTFMAQQQYRDISLCVSCFEIYGNKVFDLLNARKKLNILEDGKKKVVVVGLKEFGVDDVDGVKALIEESAKNRSTGSTAANADSSRSHSIMQFALKRAA”, the protein production result is recorded as “failed”.

In the case of “QGPVGTRIRLALGQDVEAANALMATTGDGVRIIPVLATAIEDGSASSAMLAGLGGIGTNAYHEAASHTFTDRPMNEALTTVSLTLVAADEEDRIVGVLSATAPGTLIDMAMSNGFTAEKAMALSLFVAKIHGLAVAEHARGQGIAAALLKRTWQVYQQLGYMLLYGSYEADRDLAAFYTRSGYTVHAPG”, the protein production result was “failed”.

As to “MDPTEMRYLEEENGAMMKTFKDAVTGFATGKTSLVFIGVEQLVQNFRAKRDFFNGAHITMTKVARTHY”, the protein production result is given as “failed”.

As for “MVFSMHDKGETQENPADMSGRLNTPISTVFHFFSSLFHDALRSVAQWSAWKKIAVSVVIVAIISVTFLVDVPPISVYRDWANNAGDAFVLVFCAFYILITQFPIPRTVLTLASGVLFGPVLGSVVALGSTTVSAVISLLIVRGLLGDWMAPRLTHPAVSRINTRLEQRGWLAITSLRMIAAIPFSILNYVAALTSVPVFSFAIATLIGSAPGTIVTVVLGDAVTGSGNWTAVAFTVFLAILGVLGIFLDQKMPVKPGK”, the protein production result is recorded as “failed”.

As for “MTQKEISIIHPRPSSIVAALYTLRDLNVDVAILHGPPGCSFKHARLLEEDGIHVVTTGLDENGFVFGGHDKLVQVINKSIELFNPKILGVVGTCASMIIGEEMHEAVLEANPDIPVIEVEVHAGYHNNTKGVIFALESALDAGIIDHKEFERQEYLEHHHHHH”, the protein production entry is recorded as “not failed”.

In the case of “MTHIIIDGDACPVVDSIIDLTTETGIFVTIIRSFSHFSNQLYPPHVSTLYVDDGPDAVDYKIVQLSTKDDIVVTQDYGLASLLVDKVLIVMHHNGKIYNSKNIQQLLDKRYINAQIRKQGGRHKGPPPFTKQDQKVFEQSLLKVIHRIKELDLEHHHHHH”, the protein production result was “not failed”.

As for “YAYSASLRVRQLGKPFMDEFSRRTNTTVSLTCRDRLSMIHVDSSRPPEVASLRMEPGLRLPLATSAAGRAYLAATPKIERDHLLGEVAKKLGDEWPALEKSLEDSFREYEEFGFCLSLGEWDRNVNGAGVPLRLADGSIMALTCGAPSFQLSSEKLESSLAHQLVMLARDLESLGV”, the protein production result is reported as “failed”.

For the sequence “MNQPSSLAADLRGAWHAQAQSHPLITLGLAASAAGVVLLLVAGIVNALTGENRVHVGYAVLGGTAGFAATALGALMALGLRAISARTQDAMLGFAAGMMLAASAFSLILPGLDAAGTIVGPGPAAAAVVALGLGLGVLLMLGLDYFTPHEHERTGHQGPEAARVNRVWLFVLTIILHNLPEGMAIGVSFATGDLRIGLPLTSAIAIQDVPEGLAVALALRAVGLPIGRAVLVAVASGLMEPLGALVGVGISSGFALAYPISMGLAAGAMIFVVSHEVIPETHRNGHETTATVGLMAGFALMMFLDTALG”, the protein production entry is reported as “failed”.

Take “MSLRVIDTHCDALYKLQAGKGKYTFQDAEELDVNFERLIEAKMLLQGFAIFLDEDIPVEHKWKKAVEQVNIFKQHVLHKGGIIHHVKKWCDLENLPEDKIGAMLTLEGIEPIGRDLDKLTQLLDGGVLSVGLTWNNANLAADGIMEERGAGLTRFGKDIIHLLNERKVFTDVSHLSVKAFWETLEQAEFVIASHSNAKAICSHPRNLDDEQIKAMIEHDAMIHVVFYPLFTTNNGVADTEDVIRHIDHICELGGLKNIGFGSDFDGIPDHVKGLEHVGKYQSFLETLEKHYTKEEIEGFASRNFLNHLPKEGHHHHHH”: the protein production result is recorded as “not failed”.

As for “MPCDFPGCGRIFSNRQYLNHHKKYQHIHQKSFSCPEPACGKSFNFKKHLKEHMKLHSDTRDYICEF”, the protein production entry was “not failed”.

As to “DNDAIYYPVGDVDIERGGPALEVGEEDVLVARSFNEEDYVLDTIAQYPNDPTLGKLTFMIDLKNQQKDQNVADFNGVGKSKLTMSLGYKDGNYPSESQVPIYTSQDVTAKYAVKLRLKGELLVSGDEWMIDYVYAQLASLFQPYPPANFPEVFMCKGGMKLGTFDSFRRTCTFDITYDRSDLSFSQLYFNLFINLAGQKRENRVRLRIDKESYFELYEQSEEM”, the protein production entry was “not failed”.

In the case of “MDGMGTLTRYLEEAMARARYELIADEEPYYGEIPDLPGVWATGKSLKECEANLQAALEDWLLFLLSRGETPPPLGEVRIELPHGEAA”, the protein production result was “not failed”.

“MEGEAQKKFTTGDKAYVKKDSMMYEIVVGCNRSCPCRDSQCIAQIQQVAEPTVANGTARYFVHYVSWNESFDEWVEELDLYPFNAESQQLMNDLRQQALTEKDTENSVPEQENQLKRKRPSKETEKREEPLDAYSLFNIPGSLKRQLMDEWETVTREKMTLTLPREYTVRRILEIWATTKSKQSDSNKDDSTVQEFVNGIFELFNISLGKMLLYRYERPQHNQIFHENESPPEPIDVYGAEHLLRLFVKLPGLVRHLQVPEEAVLNIAQKSYEMLRFLQKNSRKFFSPQYEPLKSQDDSVQGENEDDMDEE”: the protein production result was “not failed”.

“DDAGKRHVYVKEIATGTVKRAIEEKDELIKGYGWINDERLFFVMDKGGNENYHLFASNIDGSNTRDLTPFDGVKASILNMLKEQKDYMIISMNKNNPQIFEPYKLNVVTGELTQLYENKDAANPIQGYEFDKDGELRGYSRLVNGIESELYYKDLATGEFRLLKKTHWDDTFGVIAFNYASKNKDEAYVLTNLDSDKTRIVLYDLKQNKIIREIFANEDYDVSGLHLSRKRNYEIDLMAYEGEKSVVVPVSATYKELHKLMEKEFKGKEFSVVDYDDDETILLIAVQSDKLYGTYYQFDTRTKKFTLLYDLMPQLKEEDMAEMRPIKFKSRDGLTIHGYITLPKAALEGKKVPLIVNPHGGPQGIRDSWGFNPETQLFASRGYATLQVNFRISGGYGKEFLRAGFKQIGRKAMDDVEDGVRYAISQGWVDPDRIAIYGASHGGYATLMGLVKTPDLYACGVDYVGVSNIYTFFDSFPEYWKPFKEMVKEIWYDLDNPEEAAIAKEVSPFFQIDKINKPLFVVQGANDPRVNINESDQIVTALRARGFEVPYMVKYNEGHGFHREENSMELYRAMLGFFAKHLK”: the protein production entry is given as “failed”.

With “MIYMPIVVAVDKKSDRAERVLRFAAEEARLRGVPVYVVHSLPGGGRTKDEDIIEAKETLSWAVSIIRKEGAEGEEHLLVRGKEPPDDIVDFADEVDAIAIVIGIRKRSPTGKLIFGSVARDVILKANKPVICIK”, the protein production entry is reported as “not failed”.

On to “MNHKQYLALAVPLIISTITTPLLGAVDTAVAGQLSSPAYIGGVAVGTMIFNTMYWLLGFLRVSTSGFAAQSLGSQNRSESVLALARPVFIALFAGLMFIILQKPLEYAALTLIQPDRHTAEFASQYFSLRIWGAPFALISYCILGWLMGMSLIKVTLLLQISMNVLNIVLDIVFVYVFHMEVYGIALATLISDVTGCLIGCWLVKTNAAMPFKLPSVKLLFDPKPFKKMMVVNRDLLIRTLCLLTVFNLFTAKGAGFGAEILAANAILIQIHYLMAYVFDGFANASSIFAGKAVGRMDRDLYSRTLSLSIQWSLISAALLSVGYFLLRNAILPLFTPLESVLEAAKTYDVWIALFPLAASFGLVFYGIFTGATEIGPVRNSMFLAVLVFLAAFFTAVPAFGNHGLWLAFLLFSLGRSVFLCMAVPGLTTRLFGERSAAREAGQRPKSLKHPG”, for which the protein production result was “failed”.

Consider “MDLLERLGLGGRRVLILHHDDLGLTHAQNGAYQALGLPTGSVMVPGAWASGVKGEDLGVHLVLTSEWPAPRMRPLTEGESLRDEAGYFPESLEALWRKARAEEVERELKAQIQAAAKLFSPTHLDAHQGAVLRPDLAEVYLRLAEAYRLVPLVPESLEGLGVPPPFLPELERLLYETPFPQVRFLDPYGLPPEERLGFYLDLAHLPPGLYYLVHHSALPTPEGRALPDWPTREADYFALSHPEVRRVLAEFHPLTWRAVREALF”, for which the protein production result is “not failed”.

As to “MKPTLFVLAAGMGSRYGSLKQLDGIGPGGDTIMDYSVYDAIRAGFGRLVFVIRHSFEKEFREKILTKYEGRIPVELVFQELDRLPEGFSCPEGREKPWGTNHAVLMGRDAIREPFAVINADDFYGRNGFEVLARKLMTLEGKQGEYCMVGYRVGNTLSESGGVSRGVCQVDEKHLLTGVVERTGIERTDGTISFRDETGKICTLAEDAPVSMNMWGFTPDYFDYSEELFINFLNAHGQEPKSEFFIPFVVNDLIRSGRASVEVLDTTARWFGVTYSDDRPGVVAKLRELTEAGEYPTKLFLEHHHHHH”, the protein production entry is “not failed”.

For the sequence “MEKFTVSKRHWLLLWGLQLGLAGGAAPVFSQAVLPYTPNLDQQQLEDQGLALTEDVVQLVRFQQYDLAFPRAKLATQLAPEQFQTWFILGTLYLQQEEVEPGITVLKKAEALAPEEAGIKFTLGNAYFQKGQYDQAVEVLLAGLAQRPDTPAALFDLGNAYLKLVKYPDAVTAYQKALKAEEQFWPALNNIGLIEYEQGKIDTALKRWQEVIKIDSEQPEPQLAIAVALYKQGKTEEGLRKAQDALNLDSRYGEIDFLVKNLWGEQLIADTKALFATPTMVEVLRTLPPPSDDL”, the protein production entry is reported as “failed”.
